Source: paper PMC12756002, “Mutations in Hsp40 co-chaperone change the canonical interdomain interactions stimulating LGMDD1 myopathy” (The Journal of Biological Chemistry, 2025)

B1: Ssa1-WT (natural protein)
chain: not shown
notes: Ssa1, yeast Hsp70; Cloned into pPROEx-Htb; cleavage of the tag follows from 'the remaining purification steps were analogous to those for Sis1-WT'; also called Hsp70; source: E. coli Rosetta 2(DE3), purified (Talon resin, steps analogous to Sis1)

Legend:
Settings in all cases: both partners purified
[1] = molecular target: T1, Sis1-FLRnq1 complex (Sis1-WT premixed with denatured Rnq1) (yeast, UniProt P25294 1-352; P25367 1-405); experiment: ELISA; denatured Rnq1 premixed with Sis1-WT or mutants (5 nM), 1 h room temperature, adsorbed onto wells; dilutions of Ssa1-WT (0-20 nM); bound Ssa1 detected with an anti-Ssa1 (Hsp70) antibody
T1 construct: also called Sis1-WT with client protein Rnq1
T1 sequence (looked up) 1: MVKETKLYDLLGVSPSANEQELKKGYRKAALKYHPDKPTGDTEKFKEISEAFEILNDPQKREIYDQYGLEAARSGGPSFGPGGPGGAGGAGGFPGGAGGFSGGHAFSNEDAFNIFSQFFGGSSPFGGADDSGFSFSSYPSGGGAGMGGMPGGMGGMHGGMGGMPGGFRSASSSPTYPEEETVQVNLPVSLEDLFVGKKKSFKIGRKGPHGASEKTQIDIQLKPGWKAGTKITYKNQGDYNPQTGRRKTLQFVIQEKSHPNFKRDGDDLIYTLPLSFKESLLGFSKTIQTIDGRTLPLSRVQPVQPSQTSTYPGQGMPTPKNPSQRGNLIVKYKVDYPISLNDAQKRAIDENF
T1 sequence (looked up) 2: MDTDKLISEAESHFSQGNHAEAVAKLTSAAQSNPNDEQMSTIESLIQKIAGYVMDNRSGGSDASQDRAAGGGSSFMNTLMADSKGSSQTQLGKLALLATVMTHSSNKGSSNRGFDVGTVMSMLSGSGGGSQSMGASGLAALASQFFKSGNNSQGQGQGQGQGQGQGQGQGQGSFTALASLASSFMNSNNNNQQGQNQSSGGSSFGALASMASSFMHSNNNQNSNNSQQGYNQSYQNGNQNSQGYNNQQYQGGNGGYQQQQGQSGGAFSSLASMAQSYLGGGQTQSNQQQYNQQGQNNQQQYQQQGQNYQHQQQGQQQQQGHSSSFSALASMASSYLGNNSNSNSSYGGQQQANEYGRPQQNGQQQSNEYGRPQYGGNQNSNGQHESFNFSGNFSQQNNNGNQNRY

[2] = molecular target: T2, Sis1-S49V premixed with denatured Rnq1 (yeast, UniProt P25294 1-352; P25367 1-405, S49V); experiment: as above
T2 construct: also called Sis1-FLRnq1 complex (S49V)
T2 sequence (looked up) 1: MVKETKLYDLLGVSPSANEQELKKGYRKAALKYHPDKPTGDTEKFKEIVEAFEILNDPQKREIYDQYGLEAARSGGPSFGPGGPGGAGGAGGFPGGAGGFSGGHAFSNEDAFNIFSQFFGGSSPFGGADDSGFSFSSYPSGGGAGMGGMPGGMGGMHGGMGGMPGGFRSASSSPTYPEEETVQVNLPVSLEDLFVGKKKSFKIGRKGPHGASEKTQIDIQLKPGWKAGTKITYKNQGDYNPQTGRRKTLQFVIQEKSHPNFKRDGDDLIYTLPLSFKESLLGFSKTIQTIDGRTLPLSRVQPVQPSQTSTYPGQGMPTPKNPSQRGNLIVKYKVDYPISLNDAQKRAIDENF
T2 sequence (looked up) 2: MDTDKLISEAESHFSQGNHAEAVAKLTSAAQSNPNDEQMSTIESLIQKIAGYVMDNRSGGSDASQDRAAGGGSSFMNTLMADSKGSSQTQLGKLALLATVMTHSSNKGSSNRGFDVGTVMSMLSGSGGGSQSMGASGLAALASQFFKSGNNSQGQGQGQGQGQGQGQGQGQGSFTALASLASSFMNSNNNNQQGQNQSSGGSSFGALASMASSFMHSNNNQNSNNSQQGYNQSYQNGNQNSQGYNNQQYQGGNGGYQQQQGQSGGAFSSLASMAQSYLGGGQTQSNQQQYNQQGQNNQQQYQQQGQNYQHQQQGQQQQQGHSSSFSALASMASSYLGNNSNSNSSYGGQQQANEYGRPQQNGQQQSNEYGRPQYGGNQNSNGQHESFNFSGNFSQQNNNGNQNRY

[3] = molecular target: T3, Sis1-E53A premixed with denatured Rnq1 (yeast, UniProt P25294 1-352; P25367 1-405, E53A); experiment: as above
T3 construct: also called Sis1-FLRnq1 complex (E53A)
T3 sequence (looked up) 1: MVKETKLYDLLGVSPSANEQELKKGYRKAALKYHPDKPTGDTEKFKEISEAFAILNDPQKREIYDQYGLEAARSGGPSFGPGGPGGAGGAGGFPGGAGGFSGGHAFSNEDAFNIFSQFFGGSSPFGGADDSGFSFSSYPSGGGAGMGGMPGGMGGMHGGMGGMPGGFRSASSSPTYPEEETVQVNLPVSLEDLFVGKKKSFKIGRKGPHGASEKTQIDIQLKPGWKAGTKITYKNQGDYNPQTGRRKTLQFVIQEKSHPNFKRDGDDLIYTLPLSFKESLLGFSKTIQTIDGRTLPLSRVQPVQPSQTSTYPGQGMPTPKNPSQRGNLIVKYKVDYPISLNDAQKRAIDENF
T3 sequence (looked up) 2: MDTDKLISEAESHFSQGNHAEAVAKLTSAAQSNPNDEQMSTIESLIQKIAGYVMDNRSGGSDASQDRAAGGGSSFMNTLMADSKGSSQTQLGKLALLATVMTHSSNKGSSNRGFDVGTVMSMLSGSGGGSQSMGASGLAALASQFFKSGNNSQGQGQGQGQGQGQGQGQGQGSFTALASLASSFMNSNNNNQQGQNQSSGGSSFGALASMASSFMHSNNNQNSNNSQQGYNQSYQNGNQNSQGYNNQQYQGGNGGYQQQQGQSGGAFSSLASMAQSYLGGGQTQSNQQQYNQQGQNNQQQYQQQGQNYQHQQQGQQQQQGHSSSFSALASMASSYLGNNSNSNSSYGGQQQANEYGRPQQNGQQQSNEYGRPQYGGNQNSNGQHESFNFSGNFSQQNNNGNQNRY

[4] = molecular target: T4, Sis1-E53K premixed with denatured Rnq1 (yeast, UniProt P25294 1-352; P25367 1-405, E53K); experiment: as above
T4 construct: also called Sis1-FLRnq1 complex (E53K)
T4 sequence (looked up) 1: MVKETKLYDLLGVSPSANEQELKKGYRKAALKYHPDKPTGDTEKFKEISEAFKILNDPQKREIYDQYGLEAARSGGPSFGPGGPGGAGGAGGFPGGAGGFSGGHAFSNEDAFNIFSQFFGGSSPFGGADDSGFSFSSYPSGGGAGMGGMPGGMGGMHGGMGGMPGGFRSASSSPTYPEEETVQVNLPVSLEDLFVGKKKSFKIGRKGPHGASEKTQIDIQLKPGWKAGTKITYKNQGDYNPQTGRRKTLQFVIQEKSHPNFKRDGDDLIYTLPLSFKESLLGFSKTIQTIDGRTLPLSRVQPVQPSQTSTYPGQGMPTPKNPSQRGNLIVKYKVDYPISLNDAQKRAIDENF
T4 sequence (looked up) 2: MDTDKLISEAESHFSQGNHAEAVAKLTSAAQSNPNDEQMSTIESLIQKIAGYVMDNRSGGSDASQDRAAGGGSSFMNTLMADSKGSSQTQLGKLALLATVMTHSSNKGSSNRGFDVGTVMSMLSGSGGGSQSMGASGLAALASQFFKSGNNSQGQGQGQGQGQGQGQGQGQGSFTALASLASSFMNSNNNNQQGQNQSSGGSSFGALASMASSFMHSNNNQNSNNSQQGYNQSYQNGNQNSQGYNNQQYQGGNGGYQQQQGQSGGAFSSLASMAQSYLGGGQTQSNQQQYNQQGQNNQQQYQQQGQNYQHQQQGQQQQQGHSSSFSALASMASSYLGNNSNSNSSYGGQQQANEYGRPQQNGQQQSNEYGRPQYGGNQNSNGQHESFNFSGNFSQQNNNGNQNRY

[5] = molecular target: T5, Sis1-N56L premixed with denatured Rnq1 (yeast, UniProt P25294 1-352; P25367 1-405, N56L); experiment: as above
T5 construct: also called Sis1-FLRnq1 complex (N56L)
T5 sequence (looked up) 1: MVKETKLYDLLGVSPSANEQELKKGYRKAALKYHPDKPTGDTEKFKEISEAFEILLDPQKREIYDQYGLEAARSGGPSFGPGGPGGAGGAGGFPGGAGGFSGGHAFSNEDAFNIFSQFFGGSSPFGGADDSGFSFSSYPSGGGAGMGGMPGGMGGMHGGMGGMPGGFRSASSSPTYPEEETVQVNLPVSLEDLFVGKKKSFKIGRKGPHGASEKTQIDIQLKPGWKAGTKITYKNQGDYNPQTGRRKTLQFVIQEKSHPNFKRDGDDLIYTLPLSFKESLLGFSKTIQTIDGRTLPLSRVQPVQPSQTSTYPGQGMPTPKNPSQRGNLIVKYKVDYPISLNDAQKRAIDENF
T5 sequence (looked up) 2: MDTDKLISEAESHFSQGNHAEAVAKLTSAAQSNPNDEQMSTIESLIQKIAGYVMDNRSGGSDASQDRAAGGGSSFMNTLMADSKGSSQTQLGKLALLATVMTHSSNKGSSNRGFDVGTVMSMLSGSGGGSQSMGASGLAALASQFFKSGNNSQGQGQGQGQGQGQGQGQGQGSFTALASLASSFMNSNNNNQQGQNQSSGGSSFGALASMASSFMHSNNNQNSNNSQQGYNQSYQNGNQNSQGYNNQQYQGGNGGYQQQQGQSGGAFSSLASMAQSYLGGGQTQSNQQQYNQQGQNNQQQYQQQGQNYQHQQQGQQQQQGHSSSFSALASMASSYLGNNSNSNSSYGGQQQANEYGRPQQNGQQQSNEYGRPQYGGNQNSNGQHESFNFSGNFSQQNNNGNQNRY

Ssa1-WT = molecular target: B1; experiment: ELISA; Ssa1 (200 nM) immobilised in microtiter wells; dilutions of Sis1-WT or mutants (0-50 nM); bound Sis1 detected with an anti-Sis1 antibody; no client
full-length Rnq1 = molecular target: T6, full-length Rnq1 (yeast, UniProt P25367 1-405); experiment: ELISA; denatured substrate (FL Rnq1 or ΔN Rnq1 400 ng, luciferase 100 ng) immobilised in microtiter wells; dilutions of Sis1-WT or mutants (0-20 or 0-25 nM) in PBS-T with 0.5% BSA, overnight at room temperature; retained Sis1 detected with an anti-Sis1 antibody
T6 construct: also called FL Rnq1; Rnq1-WT
T6 sequence (looked up): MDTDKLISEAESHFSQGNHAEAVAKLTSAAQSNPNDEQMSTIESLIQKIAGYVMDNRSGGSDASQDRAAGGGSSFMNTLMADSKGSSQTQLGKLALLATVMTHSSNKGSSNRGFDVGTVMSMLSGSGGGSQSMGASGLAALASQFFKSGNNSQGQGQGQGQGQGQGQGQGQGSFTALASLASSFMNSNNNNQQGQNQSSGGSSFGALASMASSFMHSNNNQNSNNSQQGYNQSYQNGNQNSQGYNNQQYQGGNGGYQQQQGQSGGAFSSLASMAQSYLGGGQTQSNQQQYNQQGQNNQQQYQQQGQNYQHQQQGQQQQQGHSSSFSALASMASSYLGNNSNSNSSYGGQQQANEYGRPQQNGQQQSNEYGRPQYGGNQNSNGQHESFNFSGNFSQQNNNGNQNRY

Measured: binding result

Ssa1-WT, sequence (P10591 whole entry): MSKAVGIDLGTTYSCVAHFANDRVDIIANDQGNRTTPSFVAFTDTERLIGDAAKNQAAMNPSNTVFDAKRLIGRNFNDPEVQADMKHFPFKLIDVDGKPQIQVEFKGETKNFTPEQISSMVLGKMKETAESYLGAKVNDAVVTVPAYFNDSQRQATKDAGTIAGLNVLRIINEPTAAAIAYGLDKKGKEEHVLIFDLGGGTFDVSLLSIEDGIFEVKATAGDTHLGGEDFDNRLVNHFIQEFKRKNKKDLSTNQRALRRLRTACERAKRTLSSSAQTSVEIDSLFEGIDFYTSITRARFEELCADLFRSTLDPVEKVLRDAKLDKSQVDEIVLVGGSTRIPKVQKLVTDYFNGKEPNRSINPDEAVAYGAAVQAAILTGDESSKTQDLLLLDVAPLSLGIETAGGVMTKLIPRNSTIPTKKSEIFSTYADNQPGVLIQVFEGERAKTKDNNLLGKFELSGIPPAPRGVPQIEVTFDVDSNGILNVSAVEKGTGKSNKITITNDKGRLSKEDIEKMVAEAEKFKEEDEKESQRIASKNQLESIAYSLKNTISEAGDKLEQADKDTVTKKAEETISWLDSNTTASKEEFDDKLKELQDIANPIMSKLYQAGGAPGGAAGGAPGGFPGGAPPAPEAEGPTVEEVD

B1
binds: [1] | [2] | [3] | [4] | [5]

B2: Sis1-WT (natural protein, yeast, UniProt P25294 1-352, looked up)
chain: MVKETKLYDLLGVSPSANEQELKKGYRKAALKYHPDKPTGDTEKFKEISEAFEILNDPQKREIYDQYGLEAARSGGPSFGPGGPGGAGGAGGFPGGAGGFSGGHAFSNEDAFNIFSQFFGGSSPFGGADDSGFSFSSYPSGGGAGMGGMPGGMGGMHGGMGGMPGGFRSASSSPTYPEEETVQVNLPVSLEDLFVGKKKSFKIGRKGPHGASEKTQIDIQLKPGWKAGTKITYKNQGDYNPQTGRRKTLQFVIQEKSHPNFKRDGDDLIYTLPLSFKESLLGFSKTIQTIDGRTLPLSRVQPVQPSQTSTYPGQGMPTPKNPSQRGNLIVKYKVDYPISLNDAQKRAIDENF
notes: Sis1, essential yeast DNAJ (Hsp40) protein, homolog of human DNAJB6; Cloned into pPROEx-Htb (hexa-His-tag, TEV site); also called Hsp40; wild-type Sis1; source: E. coli Lemo21(DE3), purified (Talon cobalt resin, TEV cleavage, second Talon pass)
binds: Ssa1-WT | full-length Rnq1

B3: Sis1-N56L (natural protein, yeast, UniProt P25294 1-352, looked up)
chain: MVKETKLYDLLGVSPSANEQELKKGYRKAALKYHPDKPTGDTEKFKEISEAFEILLDPQKREIYDQYGLEAARSGGPSFGPGGPGGAGGAGGFPGGAGGFSGGHAFSNEDAFNIFSQFFGGSSPFGGADDSGFSFSSYPSGGGAGMGGMPGGMGGMHGGMGGMPGGFRSASSSPTYPEEETVQVNLPVSLEDLFVGKKKSFKIGRKGPHGASEKTQIDIQLKPGWKAGTKITYKNQGDYNPQTGRRKTLQFVIQEKSHPNFKRDGDDLIYTLPLSFKESLLGFSKTIQTIDGRTLPLSRVQPVQPSQTSTYPGQGMPTPKNPSQRGNLIVKYKVDYPISLNDAQKRAIDENF
notes: Sis1, essential yeast DNAJ (Hsp40) protein, with the J-domain mutation N56L; also called homologous to DNAJB6-S57L; LGMDD1 J-domain mutant; source: E. coli Lemo21(DE3), purified (Talon cobalt resin, TEV cleavage, second Talon pass)
binds: Ssa1-WT | full-length Rnq1
